Measured values as given in patent US10941182 (Amgen, dated 2021).
Starred links: 1 amine or outer side, 2 acyl side, 3 side chain; linkers in the order of their positions; H or OH if unused. Non-standard residues stand in square brackets, D forms with d. *: point of attachment. Oic = O=C(O)[C@@H]1C[C@@H]2CCCC[C@@H]2N1; Phe(4-Cl) = N[C@@H](Cc1ccc(Cl)cc1)C(=O)O; γGlu = O=C(O)[C@H](CCC(=O)[*:2])N[*:1]; NMehArg = CN[C@@H](CCCCNC(=N)N)C(=O)O; Tridecanoyl = CCCCCCCCCCCCC(=O)*; Cha = N[C@@H](CC1CCCCC1)C(=O)O; Nle = CCCC[C@H](N)C(=O)O; AEEA = NCCOCCOCC(=O)O; Aib = CC(C)(N)C(=O)O

T1: human APJ receptor (human, UniProt P35414 1-380)
T1 sequence (looked up): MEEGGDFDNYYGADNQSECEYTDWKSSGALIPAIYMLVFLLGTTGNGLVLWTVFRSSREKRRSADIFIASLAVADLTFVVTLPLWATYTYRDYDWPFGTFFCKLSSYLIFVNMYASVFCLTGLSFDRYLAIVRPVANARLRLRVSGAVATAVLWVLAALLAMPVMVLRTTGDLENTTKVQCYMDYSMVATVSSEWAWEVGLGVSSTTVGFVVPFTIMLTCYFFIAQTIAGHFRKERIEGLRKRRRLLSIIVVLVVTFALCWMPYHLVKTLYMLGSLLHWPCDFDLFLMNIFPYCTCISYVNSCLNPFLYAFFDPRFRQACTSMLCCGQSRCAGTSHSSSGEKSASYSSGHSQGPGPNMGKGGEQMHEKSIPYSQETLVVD

T2: rat APJ receptor (rat, UniProt Q9JHG3 1-377)
T2 sequence (looked up): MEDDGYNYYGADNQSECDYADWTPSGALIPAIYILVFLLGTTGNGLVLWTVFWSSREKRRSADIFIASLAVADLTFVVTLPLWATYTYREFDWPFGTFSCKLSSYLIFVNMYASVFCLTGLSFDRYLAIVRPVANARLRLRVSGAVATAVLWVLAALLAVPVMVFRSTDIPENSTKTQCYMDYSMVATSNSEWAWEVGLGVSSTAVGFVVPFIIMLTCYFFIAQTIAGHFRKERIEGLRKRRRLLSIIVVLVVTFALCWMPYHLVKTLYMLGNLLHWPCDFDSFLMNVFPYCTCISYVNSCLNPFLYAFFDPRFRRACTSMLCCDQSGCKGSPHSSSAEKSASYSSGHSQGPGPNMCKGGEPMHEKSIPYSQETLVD


How the values were obtained:
human APJ receptor = target: T1, human APJ receptor; test: cell-based or functional assay
rat APJ receptor = target: T2, rat APJ receptor; test: cell-based or functional assay

Binder | EC50 Human APJ Receptor (GTPγS assay) (human APJ receptor) [nM] | EC50 Rat APJ Receptor (GTPγS assay) (rat APJ receptor) [nM]
Tridecanoyl-[γGlu][AEEA][AEEA]QRPELSHKGP[Nle]P[Phe(4-Cl)]-OH (SMILES CCCCCCCCCCCCC(=O)N[C@@H](CCC(=O)NCCOCCOCC(=O)NCCOCCOCC(=O)N[C@@H](CCC(N)=O)C(=O)N[C@@H](CCCNC(=N)N)C(=O)N1CCC[C@H]1C(=O)N[C@@H](CCC(=O)O)C(=O)N[C@@H](CC(C)C)C(=O)N[C@@H](CO)C(=O)N[C@@H](Cc1c[nH]cn1)C(=O)N[C@@H](CCCCN)C(=O)NCC(=O)N1CCC[C@H]1C(=O)N[C@@H](CCCC)C(=O)N1CCC[C@H]1C(=O)N[C@@H](Cc1ccc(Cl)cc1)C(=O)O)C(=O)O) [Apelin polypeptide SEQ ID NO: 477] | 0.423 | 0.691
Tridecanoyl-[γGlu][AEEA][AEEA]QRPPLSHKGP[Nle]P[Phe(4-Cl)]-OH (SMILES CCCCCCCCCCCCC(=O)N[C@@H](CCC(=O)NCCOCCOCC(=O)NCCOCCOCC(=O)N[C@@H](CCC(N)=O)C(=O)N[C@@H](CCCNC(=N)N)C(=O)N1CCC[C@H]1C(=O)N1CCC[C@H]1C(=O)N[C@@H](CC(C)C)C(=O)N[C@@H](CO)C(=O)N[C@@H](Cc1c[nH]cn1)C(=O)N[C@@H](CCCCN)C(=O)NCC(=O)N1CCC[C@H]1C(=O)N[C@@H](CCCC)C(=O)N1CCC[C@H]1C(=O)N[C@@H](Cc1ccc(Cl)cc1)C(=O)O)C(=O)O) [Apelin polypeptide SEQ ID NO: 427] | 0.17 | 0.313
Tridecanoyl-[γGlu][AEEA][AEEA][dQ]RP[dE][Cha]SHKG[Oic][Nle][Aib][Phe(4-Cl)]-OH (SMILES CCCCCCCCCCCCC(=O)N[C@@H](CCC(=O)NCCOCCOCC(=O)NCCOCCOCC(=O)N[C@H](CCC(N)=O)C(=O)N[C@@H](CCCNC(=N)N)C(=O)N1CCC[C@H]1C(=O)N[C@H](CCC(=O)O)C(=O)N[C@@H](CC1CCCCC1)C(=O)N[C@@H](CO)C(=O)N[C@@H](Cc1c[nH]cn1)C(=O)N[C@@H](CCCCN)C(=O)NCC(=O)N1[C@H](C(=O)N[C@@H](CCCC)C(=O)NC(C)(C)C(=O)N[C@@H](Cc2ccc(Cl)cc2)C(=O)O)C[C@@H]2CCCC[C@@H]21)C(=O)O) [Apelin polypeptide SEQ ID NO: 527] | 108 | 227
Tridecanoyl-[γGlu][AEEA][AEEA][dQ]RPE[Cha]SHKG[Oic][Nle][Aib][Phe(4-Cl)]-OH (SMILES CCCCCCCCCCCCC(=O)N[C@@H](CCC(=O)NCCOCCOCC(=O)NCCOCCOCC(=O)N[C@H](CCC(N)=O)C(=O)N[C@@H](CCCNC(=N)N)C(=O)N1CCC[C@H]1C(=O)N[C@@H](CCC(=O)O)C(=O)N[C@@H](CC1CCCCC1)C(=O)N[C@@H](CO)C(=O)N[C@@H](Cc1c[nH]cn1)C(=O)N[C@@H](CCCCN)C(=O)NCC(=O)N1[C@H](C(=O)N[C@@H](CCCC)C(=O)NC(C)(C)C(=O)N[C@@H](Cc2ccc(Cl)cc2)C(=O)O)C[C@@H]2CCCC[C@@H]21)C(=O)O) [Apelin polypeptide SEQ ID NO: 526] | 2.02 | 7.2
Tridecanoyl-[γGlu][AEEA][AEEA]Q[dR]P[NMehArg][Cha]SHKGP[Nle]P[Phe(4-Cl)]-OH (SMILES CCCCCCCCCCCCC(=O)N[C@@H](CCC(=O)NCCOCCOCC(=O)NCCOCCOCC(=O)N[C@@H](CCC(N)=O)C(=O)N[C@H](CCCNC(=N)N)C(=O)N1CCC[C@H]1C(=O)N(C)[C@@H](CCCCNC(=N)N)C(=O)N[C@@H](CC1CCCCC1)C(=O)N[C@@H](CO)C(=O)N[C@@H](Cc1c[nH]cn1)C(=O)N[C@@H](CCCCN)C(=O)NCC(=O)N1CCC[C@H]1C(=O)N[C@@H](CCCC)C(=O)N1CCC[C@H]1C(=O)N[C@@H](Cc1ccc(Cl)cc1)C(=O)O)C(=O)O) [Apelin polypeptide SEQ ID NO: 435] | 0.461 | 1.15
